Experimental data: patent US20190071480A1 (Biogen, published 2019)
Bridges are numbered along the chain shown (N, C = ends).

Legend:
[1] = target: T1, extracellular domain of activin receptor type IIB (ActRIIBecd), biotinylated (Homo sapiens (Human), UniProt Q13705 27-117, amino-biotinylated with amine-PEG3-Biotin); test: BIAcore SPR, biotinylated ActRIIBecd on chip; SD ±13.51 nM
T1 construct: immobilised on a streptavidin-coated sensor chip; also called biotinylated ActRIIBecd; extracellular domain of ActRIIB
T1 sequence: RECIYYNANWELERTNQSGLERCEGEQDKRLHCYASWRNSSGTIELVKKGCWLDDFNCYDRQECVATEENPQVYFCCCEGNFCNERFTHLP
Experimental: (§1) Biosensor experiments. In one embodiment, experiments were performed on a BIAcore™ T100/T200 instrument (Pharmacia Biosensor AB) in the multichannel mode (serial flow path involving flow cells 1+2+3+4). Flow rate was 10 μl/min; temperature was 25° C.; and data were recorded at 2.5 points/s. All four segments of a sensor chip CMS were coated with streptavidin (Sigma) to a density of 2000 pg/mm² (2000 resonance units) by the aminocoupling procedure. ActRIIBecd (10 mg) and amine-PEG3-Biotin (10 mg, Pierce, Rockford, Ill.) were dissolved in 200 μl H₂O and 10 mg NaCNBH₃ was added to prepare biotinylated ActRIIBecd. The reaction mixture was heated at 70° C. for 24 h, after that a further 10 mg NaCNBH₃ was added and the reaction was heated at 70° C. for another 24 h. After cooling to room temperature, the mixture was desalted with the spin column (3,000 molecular weight cut off (MWCO)). […] Sensograms were recorded during flow of the analyte (the ActRIIBecd-associated polypeptides (i.e., domains) as previously described) first through flow cell 1 (control) then through flow cell 2 (biotinylated ActRIIBecd). […] The sensograms obtained at 1.11, 3.33, 10, 30, and 90 nM analyte were evaluated for equilibrium binding, association rate, and dissociation rate by using the programs supplied with the instrument (BIA evaluation 2.1; Software Handbook. 1995; Pharmacia Biosensor AB).

[2] = target: T1, extracellular domain of activin …; test: Mean KD column of Table 5; method not restated (BIAcore as Example 5); species also listed in Table 4
Experimental: Biosensor experiments. In one embodiment, experiments were performed on a BIAcore™ T100/T200 instrument (Pharmacia Biosensor AB) in the multichannel mode (serial flow path involving flow cells 1+2+3+4). Flow rate was 10 μl/min; temperature was 25° C.; and data were recorded at 2.5 points/s. All four segments of a sensor chip CMS were coated with streptavidin (Sigma) to a density of 2000 pg/mm² (2000 resonance units) by the aminocoupling procedure. ActRIIBecd (10 mg) and amine-PEG3-Biotin (10 mg, Pierce, Rockford, Ill.) were dissolved in 200 μl H₂O and 10 mg NaCNBH₃ was added to prepare biotinylated ActRIIBecd. The reaction mixture was heated at 70° C. for 24 h, after that a further 10 mg NaCNBH₃ was added and the reaction was heated at 70° C. for another 24 h. After cooling to room temperature, the mixture was desalted with the spin column (3,000 molecular weight cut off (MWCO)). Biotinylated ActRIIBecd was collected, freeze-dried and used for streptavidin (SA) chip preparation. Amino-biotinylated ActRIIBecd was then immobilized independently on flow cells 2-4 for 10 minutes at a flow rate of 5 μL/min and a concentration of 20 μM in 10 mM sodium acetate, pH 4.0, at a density of 50-250 resonance units (RU). The stored polypeptides were dissolved in glycine buffer (2.5 g of glycine, 0.5 g of sucrose, 370 mg of L-glutamate, 10 mg of sodium chloride, and 10 mg of Tween 80 in 100 mL water, pH 4.5) to prepare 10 mg/mL solution and then diluted with previous glycine buffer to prepare analytes with various concentration. Sensograms were recorded during flow of the analyte (the ActRIIBecd-associated polypeptides (i.e., domains) as previously described) first through flow cell 1 (control) then through flow cell 2 (biotinylated ActRIIBecd). The sensogram obtained for flow cell 1 was subtracted from the sensogram obtained for flow cell 2. The sensograms obtained at 1.11, 3.33, 10, 30, and 90 nM analyte were evaluated for equilibrium binding, association rate, and dissociation rate by using the programs supplied with the instrument (BIA evaluation 2.1; Software Handbook. 1995; Pharmacia Biosensor AB).

[3] = target: T1, extracellular domain of activin …; test: BIAcore SPR as Example 5 (method not restated); SD ±3.12 nM
Experimental: as §1

[4] = target: T1, extracellular domain of activin …; test: BIAcore SPR as Example 5 (method not restated); SD ±1.09 nM
Experimental: as §1

[5] = target: T1, extracellular domain of activin …; test: BIAcore SPR as Example 5 (method not restated); SD ±1.70 nM
Experimental: as §1

[6] = target: T1, extracellular domain of activin …; test: BIAcore SPR, biotinylated ActRIIBecd on chip; SD ±16.41 nM
Experimental: as §1

[7] = target: T1, extracellular domain of activin …; test: BIAcore SPR as Example 5 (method not restated); SD ±2.21 nM
Experimental: as §1

[8] = target: T1, extracellular domain of activin …; test: BIAcore SPR as Example 5 (method not restated); SD ±3.09 nM
Experimental: as §1

[9] = target: T1, extracellular domain of activin …; test: BIAcore SPR as Example 5 (method not restated); SD ±1.56 nM
Experimental: as §1

[10] = target: T1, extracellular domain of activin …; test: BIAcore SPR, biotinylated ActRIIBecd on chip; SD ±12.12 nM
Experimental: as §1

[11] = target: T1, extracellular domain of activin …; test: BIAcore SPR, biotinylated ActRIIBecd on chip; SD ±23.17 nM
Experimental: as §1

[12] = target: T1, extracellular domain of activin …; test: BIAcore SPR as Example 5 (method not restated); SD ±1.99 nM
Experimental: as §1

[13] = target: T1, extracellular domain of activin …; test: Mean KD column of Table 5; differs from Table 4 (22.31)
Experimental: as §1

[14] = target: T1, extracellular domain of activin …; test: BIAcore SPR as Example 5 (method not restated); SD ±1.62 nM
[15] = target: T1, extracellular domain of activin …; test: BIAcore SPR as Example 5 (method not restated); SD ±1.79 nM
Experimental: as §1

[16] = target: T1, extracellular domain of activin …; test: BIAcore SPR as Example 5 (method not restated); SD ±2.62 nM
Experimental: as §1

[17] = target: T1, extracellular domain of activin …; test: BIAcore SPR as Example 5 (method not restated); SD ±1.41 nM
Experimental: as §1

[18] = target: T1, extracellular domain of activin …; test: BIAcore SPR as Example 5 (method not restated); SD ±2.89 nM
Experimental: as §1

[19] = target: T1, extracellular domain of activin …; test: BIAcore SPR as Example 5 (method not restated); SD ±1.98 nM
Experimental: as §1

[20] = target: T1, extracellular domain of activin …; test: BIAcore SPR as Example 5 (method not restated); SD ±2.06 nM
Experimental: as §1

B1: Recombinant polypeptide of clones 15 + 10 (designed binder)
chain: VDFSDVGWNDWIVAPPGYHAFYCHGECPFPLADHLNSTNHAIVQTLVNSVAQAKHKQRKRLKSSCKRHPLY
- Kd [1]: 29.7 nM

B2: SEQ ID NO: 206, cysteine pairs C67-C71^a, C8-C41^a, C9-C43^a (designed binder)
chain: NSKIPKACCVPTELSAISMLYLDENEKVVLKNYQDMVVEGCGCRVDFSDVGWNDWIVAPPGYHAFYCHGECPFPLADHLNSTNHAIVQTLVNSV
modifications: disulfides C67-C71 (intra), C8-C41 (intra), C9-C43 (intra)
- Kd [2]: 15.5 nM
- Kd [3]: 15.5 nM

B3: SEQ ID NO: 206, cysteine pairs C8-C71^a (designed binder)
chain: B2 chain
modifications: disulfides C8-C71 (intra)
- Kd [2]: 49.7 nM
- Kd [4]: 49.7 nM

B4: SEQ ID NO: 206, cysteine pairs C67-C71^a, C8-C43^a, C9-C41^a (designed binder)
chain: B2 chain
modifications: disulfides C67-C71 (intra), C8-C43 (intra), C9-C41 (intra)
- Kd [5]: 17.7 nM
- Kd [2]: 17.7 nM

B5: Recombinant polypeptide of clones 21 + 15 + 10 (designed binder)
chain: NSKIPKACCVPTELSAISMLYLDENEKVVLKNYQDMVVEGCGCRVDFSDVGWNDWIVAPPGYHAFYCHGECPFPLADHLNSTNHAIVQTLVNSVAQAKHKQRKRLKSSCKRHPLY
- Kd [1]: 14.2 nM

B6: Recombinant polypeptide of clones 18 + 17 (designed binder)
chain: VDFSDVGWNDHAVAPPGYHAFYCHGECPFPLADHLNSTNHAIVQTLVNSVVDFSDVGWNDWIVAPPGYHAFYCHGECPFPLADHLNSDNHAIVQTLVNSV
- Kd [6]: 66.4 nM

B7: SEQ ID NO: 212, cysteine pairs C59-C59^b, C8-C41^a, C9-C43^a (designed binder)
chain: NSKIPKACCVPTELSAISMLYLDENEKVVLKNYQDMVVEGCGCRAQAKHKQRKRLKSSCKRHPLY
modifications: disulfide 8-41, 9-43; also: homodimer via intermolecular C59-C59 disulfide
notes: homodimer by intermolecular disulfide
- Kd [2]: 18.1 nM
- Kd [7]: 18.1 nM

B8: SEQ ID NO: 212, cysteine pairs C41-C59^a (designed binder)
chain: B7 chain
modifications: disulfide 41-59
- Kd [2]: 44.3 nM
- Kd [8]: 44.3 nM

B9: SEQ ID NO: 212, cysteine pairs C59-C59^b, C8-C43^a, C9-C41^a (designed binder)
chain: B7 chain
modifications: disulfide 9-41, 8-43; also: homodimer via intermolecular C59-C59 disulfide
notes: as for B7
- Kd [2]: 19.3 nM
- Kd [9]: 19.3 nM

Binder: AQAKHKQRKRLKSSCKRHPLY [Clone No. 10 domain (ActRIIBecd-associated polypeptide)]
- Kd [10]: 36.4 nM

Binder: AQAKHKGRKRLKSSCKRHPLY [Clone No. 11 domain (ActRIIBecd-associated polypeptide)]
- Kd [11]: 63.7 nM

B10: SEQ ID NO: 224, cysteine pairs C44-C48^a (designed binder)
chain: GQAKRKGYKRLKSSCKRHPLYVDFKDVGWNDHAVAPPGYHAFYCHGECPFPLADHLNSDNHAIVQTKVNSV
modifications: disulfides C44-C48 (intra)
- Kd [12]: 22.3 nM
- Kd [13]: 21.5 nM

B11: SEQ ID NO: 218, cysteine pairs C15-C15^b, C29-C62^a, C30-C64^a (designed binder)
chain: AQAKHKQRKRLKSSCKRHPLYNSKIPKACCVPTELSAISMLYLDENEKVVLKNYQDMVVEGCGCR
modifications: disulfide 29-62, 30-64; also: homodimer via intermolecular C15-C15 disulfide
notes: as for B7
- Kd [2]: 16.2 nM
- Kd [14]: 16.2 nM

B12: SEQ ID NO: 218, cysteine pairs C15-C15^b, C29-C64^a, C30-C62^a (designed binder)
chain: B11 chain
modifications: disulfide 29-64, 30-62; also: homodimer via intermolecular C15-C15 disulfide
notes: as for B7
- Kd [15]: 18.4 nM
- Kd [2]: 18.4 nM

B13: SEQ ID NO: 218, cysteine pairs C15-C30^a (designed binder)
chain: B11 chain
modifications: disulfide 15-30
- Kd [2]: 40.9 nM
- Kd [16]: 40.9 nM

B14: SEQ ID NO: 200, cysteine pairs C23-C27^a, C58-C91^a, C59-C93^a (designed binder)
chain: VDFSDVGWNDWIVAPPGYHAFYCHGECPFPLADHLNSTNHAIVQTLVNSVNSKIPKACCVPTELSAISMLYLDENEKVVLKNYQDMVVEGCGCR
modifications: disulfides C23-C27 (intra), C58-C91 (intra), C59-C93 (intra)
- Kd [17]: 18.6 nM
- Kd [2]: 18.6 nM

B15: SEQ ID NO: 200, cysteine pairs C23-C58^a (designed binder)
chain: B14 chain
modifications: disulfides C23-C58 (intra)
- Kd [2]: 47.6 nM
- Kd [18]: 47.6 nM

B16: SEQ ID NO: 200, cysteine pairs C23-C27^a, C58-C91^b, C59-C93^b (designed binder)
chain: B14 chain
modifications: disulfides C23-C27 (intra), C58-C91 (inter), C59-C93 (inter)
notes: as for B7
- Kd [19]: 19.8 nM
- Kd [2]: 19.8 nM

B17: SEQ ID NO: 200, cysteine pairs C23-C27^a, C58-C93^a, C59-C91^a (designed binder)
chain: B14 chain
modifications: disulfides C23-C27 (intra), C58-C93 (intra), C59-C91 (intra)
- Kd [2]: 20.1 nM
- Kd [20]: 20.1 nM
